Here are results for one substance from paper PMC12429969.

The target in test [1] is cell surface IgG (sIgG) of the sIgG+ B-cell line SU-DHL-4 (human (endogenous in SU-DHL-4)).
For test [2] the target is unchanged. The source holds these as a separate data set.

“IgAimG (SpA toxin 2): diphtheria toxin without its receptor binding domain, GGGS linker, SpA ZZ domain”: in test [1], the viability of SU-DHL-4 after 3 days with 10 to 100 μg/ml IgAimG in the presence of human serum (luminescent cell viability assay) (% of cells killed) was more than 99. Moreover, the viability of the sIgG+ B-cell line SU-DHL-4 after 3 days with the toxin (luminescent cell viability assay); toxic from 0.0001 μg/ml (% of cells killed) in test [2] is 99.
